Experimental data taken from patent publication US20210063414A1, “METHODS FOR PREVENTING AND/OR TREATING BONE LOSS CONDITIONS BY MODULATING IRISIN” (Dana-Farber Cancer Institute, Inc., priority 2018, published 2021).

Tests used:
Experiment in all cases: Crosslinking/co-immunoprecipitation/mass spectrometry (TMT quantitative proteomics) to identify irisin receptors
Format in all cases: binding
[1] = molecular target: T1, MLO-Y4 cell surface proteins (Mus musculus, UniProt Q9D125); conditions: co-precipitated protein Mrps25 (RT25_MOUSE)
T1 construct: endogenous in cells; host or cells: MLO-Y4
Procedure, shortened: (§1)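 Mouse MLO-Y4 cells were switched to serum-free FreeStyle medium for 4 h, chilled, then exposed to 10 nM His-tagged irisin (or adipsin as control) for 20 min. Cells were crosslinked with 1.5 mM DTSSP (30 min, ice), and bound proteins were pulled down on Ni-NTA and eluted with 250 mM imidazole. Eluates were separated by SDS-PAGE, trypsin-digested in gel, TMT 6-plex labelled and quantified by MS3-based LC-MS/MS on an Orbitrap Fusion Lumos.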

[2] = molecular target: T2, MLO-Y4 cell surface proteins (Mus musculus, UniProt Q3U2P1); conditions: co-precipitated protein Sec24a (SC24A_MOUSE)
T2 construct: endogenous in cells; host or cells: MLO-Y4
T2 sequence (Q3U2P1 1-1090): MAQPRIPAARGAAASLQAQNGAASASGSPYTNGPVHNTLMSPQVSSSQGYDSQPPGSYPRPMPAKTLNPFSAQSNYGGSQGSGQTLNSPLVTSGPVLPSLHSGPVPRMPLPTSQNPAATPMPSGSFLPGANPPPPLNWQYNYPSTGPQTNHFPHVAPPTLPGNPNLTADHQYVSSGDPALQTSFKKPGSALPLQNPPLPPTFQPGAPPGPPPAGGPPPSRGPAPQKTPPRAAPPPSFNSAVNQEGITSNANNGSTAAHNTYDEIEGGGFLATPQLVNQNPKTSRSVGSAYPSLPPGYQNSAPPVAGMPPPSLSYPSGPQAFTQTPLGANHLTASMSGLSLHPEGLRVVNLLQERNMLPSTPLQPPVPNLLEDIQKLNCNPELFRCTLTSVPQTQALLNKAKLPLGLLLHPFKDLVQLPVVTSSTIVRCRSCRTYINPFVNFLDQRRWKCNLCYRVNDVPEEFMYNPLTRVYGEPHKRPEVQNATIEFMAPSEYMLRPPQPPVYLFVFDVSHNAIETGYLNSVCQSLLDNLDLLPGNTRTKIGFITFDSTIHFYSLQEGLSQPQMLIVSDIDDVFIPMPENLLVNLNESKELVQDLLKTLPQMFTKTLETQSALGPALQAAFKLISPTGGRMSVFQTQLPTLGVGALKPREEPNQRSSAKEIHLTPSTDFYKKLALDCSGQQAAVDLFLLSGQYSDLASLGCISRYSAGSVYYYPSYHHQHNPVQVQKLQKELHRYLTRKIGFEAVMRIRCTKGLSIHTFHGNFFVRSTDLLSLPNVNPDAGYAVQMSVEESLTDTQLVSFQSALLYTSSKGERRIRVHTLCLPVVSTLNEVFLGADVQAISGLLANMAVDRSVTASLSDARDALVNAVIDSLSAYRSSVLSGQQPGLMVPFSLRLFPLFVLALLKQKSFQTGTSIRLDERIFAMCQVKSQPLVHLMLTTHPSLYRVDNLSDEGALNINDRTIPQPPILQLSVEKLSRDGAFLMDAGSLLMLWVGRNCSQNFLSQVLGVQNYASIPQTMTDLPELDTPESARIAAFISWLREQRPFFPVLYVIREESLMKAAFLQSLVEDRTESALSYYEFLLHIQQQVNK
Procedure, shortened: as §1

[3] = molecular target: T3, MLO-Y4 cell surface proteins (Mus musculus, UniProt Q9Z138); conditions: co-precipitated protein Ror2 (ROR2_MOUSE)
T3 construct: endogenous in cells; host or cells: MLO-Y4
Procedure, shortened: as §1

T3 sequence (Q9Z138 34-944): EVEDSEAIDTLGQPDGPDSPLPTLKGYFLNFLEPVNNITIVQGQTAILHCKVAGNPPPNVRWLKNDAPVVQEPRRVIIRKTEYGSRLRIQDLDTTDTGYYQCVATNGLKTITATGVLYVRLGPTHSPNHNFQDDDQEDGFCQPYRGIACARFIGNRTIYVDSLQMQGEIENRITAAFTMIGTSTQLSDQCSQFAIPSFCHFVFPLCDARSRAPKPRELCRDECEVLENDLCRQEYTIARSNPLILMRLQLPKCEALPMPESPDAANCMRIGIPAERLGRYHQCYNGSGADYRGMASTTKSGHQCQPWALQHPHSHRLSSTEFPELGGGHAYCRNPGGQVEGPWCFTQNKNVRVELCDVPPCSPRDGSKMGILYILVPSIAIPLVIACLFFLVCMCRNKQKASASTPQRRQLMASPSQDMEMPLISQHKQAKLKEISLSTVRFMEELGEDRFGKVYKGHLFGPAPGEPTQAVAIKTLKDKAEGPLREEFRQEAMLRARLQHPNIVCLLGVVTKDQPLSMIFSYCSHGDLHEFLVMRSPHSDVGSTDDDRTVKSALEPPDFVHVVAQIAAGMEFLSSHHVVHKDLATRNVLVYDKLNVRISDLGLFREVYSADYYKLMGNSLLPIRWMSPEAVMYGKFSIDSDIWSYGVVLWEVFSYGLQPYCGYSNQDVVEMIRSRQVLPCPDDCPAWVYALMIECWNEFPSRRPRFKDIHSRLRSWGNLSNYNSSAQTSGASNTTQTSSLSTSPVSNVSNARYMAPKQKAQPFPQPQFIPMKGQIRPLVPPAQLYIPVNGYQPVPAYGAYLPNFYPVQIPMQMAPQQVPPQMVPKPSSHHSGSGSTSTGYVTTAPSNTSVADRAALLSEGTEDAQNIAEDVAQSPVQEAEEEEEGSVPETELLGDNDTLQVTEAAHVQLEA

A TMT signal-to-noise ratio [1] of 84.7592, a TMT signal-to-noise ratio [2] of 118.999 and a TMT signal-to-noise ratio [3] of 67.6684 were found for adipsin in this work.
